Results as given in IntAct's records for PubMed 36931259.

B1: 14-3-3 protein sigma (Homo sapiens), P31947 (parent)
chain: MERASLIQKAKLAEQAERYEDMAAFMKGAVEKGEELSCEERNLLSVAYKNVVGGQRAAWRVLSSIEQKSNEEGSEEKGPEVREYREKVETELQGVCDTVLGLLDSHLIKEAGDAESRVFYLKMKGDYYRYLAEVATGDDKKRIIDSARSAYQEAMDISKKEMPPTNPIRLGLALNFSVFHYEIANSPEEAISLAKTTFDEAMADLHTLSEDSYKDSTLIMQLLRDNLTLWTADNAGEEGGEAPQEPQS
partner: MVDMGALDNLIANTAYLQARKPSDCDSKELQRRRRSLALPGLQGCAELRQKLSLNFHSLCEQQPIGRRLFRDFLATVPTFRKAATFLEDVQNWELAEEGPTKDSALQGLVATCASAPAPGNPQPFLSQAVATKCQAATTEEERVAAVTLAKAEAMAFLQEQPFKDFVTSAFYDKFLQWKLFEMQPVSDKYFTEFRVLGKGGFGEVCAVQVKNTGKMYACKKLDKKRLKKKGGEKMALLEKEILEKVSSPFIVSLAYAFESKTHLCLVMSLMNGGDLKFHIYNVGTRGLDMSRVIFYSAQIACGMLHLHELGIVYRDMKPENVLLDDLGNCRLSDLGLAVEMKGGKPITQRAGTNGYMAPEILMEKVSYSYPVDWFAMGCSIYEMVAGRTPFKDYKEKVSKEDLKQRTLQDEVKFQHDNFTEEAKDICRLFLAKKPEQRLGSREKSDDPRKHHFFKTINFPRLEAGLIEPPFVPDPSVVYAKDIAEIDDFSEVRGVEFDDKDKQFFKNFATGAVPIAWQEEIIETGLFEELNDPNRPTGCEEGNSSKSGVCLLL
B2: 14-3-3 protein sigma (Homo sapiens), P31947 (parent)
chain: B1 chain
partner: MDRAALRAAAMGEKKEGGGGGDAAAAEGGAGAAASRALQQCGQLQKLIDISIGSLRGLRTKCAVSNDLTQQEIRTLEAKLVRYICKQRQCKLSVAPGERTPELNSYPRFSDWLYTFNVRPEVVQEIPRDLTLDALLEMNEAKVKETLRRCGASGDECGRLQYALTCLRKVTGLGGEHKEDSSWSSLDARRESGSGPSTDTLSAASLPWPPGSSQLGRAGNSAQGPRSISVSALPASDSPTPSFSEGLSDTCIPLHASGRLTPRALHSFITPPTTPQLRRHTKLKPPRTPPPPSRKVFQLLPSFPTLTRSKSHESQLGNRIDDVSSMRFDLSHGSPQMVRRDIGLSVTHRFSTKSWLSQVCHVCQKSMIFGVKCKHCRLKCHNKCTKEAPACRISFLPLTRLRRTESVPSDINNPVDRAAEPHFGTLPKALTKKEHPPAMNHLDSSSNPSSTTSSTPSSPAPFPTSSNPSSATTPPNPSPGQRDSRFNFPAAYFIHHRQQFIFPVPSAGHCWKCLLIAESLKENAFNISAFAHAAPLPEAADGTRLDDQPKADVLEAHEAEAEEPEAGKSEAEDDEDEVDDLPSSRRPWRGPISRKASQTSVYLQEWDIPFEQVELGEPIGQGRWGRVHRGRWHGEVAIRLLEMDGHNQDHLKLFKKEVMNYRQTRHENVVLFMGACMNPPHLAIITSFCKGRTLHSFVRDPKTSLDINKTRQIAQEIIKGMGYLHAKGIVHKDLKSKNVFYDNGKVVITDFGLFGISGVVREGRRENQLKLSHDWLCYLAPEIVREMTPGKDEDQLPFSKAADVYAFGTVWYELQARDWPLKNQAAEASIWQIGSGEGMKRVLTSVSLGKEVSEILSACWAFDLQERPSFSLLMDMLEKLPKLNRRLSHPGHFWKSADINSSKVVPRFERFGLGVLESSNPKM
B3: 14-3-3 protein sigma (Homo sapiens), P31947 (parent)
chain: B1 chain
partner: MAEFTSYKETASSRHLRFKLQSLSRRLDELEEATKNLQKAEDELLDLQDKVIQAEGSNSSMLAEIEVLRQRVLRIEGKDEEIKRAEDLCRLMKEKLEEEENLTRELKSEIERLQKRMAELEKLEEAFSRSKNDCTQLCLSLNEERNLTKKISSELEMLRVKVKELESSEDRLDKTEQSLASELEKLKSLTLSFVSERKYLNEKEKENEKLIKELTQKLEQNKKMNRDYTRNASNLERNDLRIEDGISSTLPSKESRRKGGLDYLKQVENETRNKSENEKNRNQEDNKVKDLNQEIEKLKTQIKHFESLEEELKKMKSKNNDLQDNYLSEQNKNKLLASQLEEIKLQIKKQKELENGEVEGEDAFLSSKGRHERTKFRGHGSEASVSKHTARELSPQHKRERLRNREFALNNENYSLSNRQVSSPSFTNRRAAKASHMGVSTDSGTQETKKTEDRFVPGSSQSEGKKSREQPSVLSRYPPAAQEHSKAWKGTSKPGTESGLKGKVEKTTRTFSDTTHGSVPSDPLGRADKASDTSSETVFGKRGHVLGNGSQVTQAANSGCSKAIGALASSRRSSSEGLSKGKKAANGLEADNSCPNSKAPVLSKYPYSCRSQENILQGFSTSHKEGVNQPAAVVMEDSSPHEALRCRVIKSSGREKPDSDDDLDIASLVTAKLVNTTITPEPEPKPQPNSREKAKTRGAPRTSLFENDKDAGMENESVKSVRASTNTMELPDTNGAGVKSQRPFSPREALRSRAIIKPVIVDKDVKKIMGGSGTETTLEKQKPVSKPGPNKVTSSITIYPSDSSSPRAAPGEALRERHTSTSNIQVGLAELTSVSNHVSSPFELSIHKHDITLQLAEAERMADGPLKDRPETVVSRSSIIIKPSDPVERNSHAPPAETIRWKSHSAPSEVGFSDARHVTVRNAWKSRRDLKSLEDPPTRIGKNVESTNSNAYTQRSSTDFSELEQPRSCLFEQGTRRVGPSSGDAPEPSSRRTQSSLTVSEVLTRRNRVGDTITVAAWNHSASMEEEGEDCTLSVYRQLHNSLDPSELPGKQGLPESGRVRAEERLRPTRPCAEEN
B4: 14-3-3 protein sigma (Homo sapiens), P31947 (parent)
chain: B1 chain
partner: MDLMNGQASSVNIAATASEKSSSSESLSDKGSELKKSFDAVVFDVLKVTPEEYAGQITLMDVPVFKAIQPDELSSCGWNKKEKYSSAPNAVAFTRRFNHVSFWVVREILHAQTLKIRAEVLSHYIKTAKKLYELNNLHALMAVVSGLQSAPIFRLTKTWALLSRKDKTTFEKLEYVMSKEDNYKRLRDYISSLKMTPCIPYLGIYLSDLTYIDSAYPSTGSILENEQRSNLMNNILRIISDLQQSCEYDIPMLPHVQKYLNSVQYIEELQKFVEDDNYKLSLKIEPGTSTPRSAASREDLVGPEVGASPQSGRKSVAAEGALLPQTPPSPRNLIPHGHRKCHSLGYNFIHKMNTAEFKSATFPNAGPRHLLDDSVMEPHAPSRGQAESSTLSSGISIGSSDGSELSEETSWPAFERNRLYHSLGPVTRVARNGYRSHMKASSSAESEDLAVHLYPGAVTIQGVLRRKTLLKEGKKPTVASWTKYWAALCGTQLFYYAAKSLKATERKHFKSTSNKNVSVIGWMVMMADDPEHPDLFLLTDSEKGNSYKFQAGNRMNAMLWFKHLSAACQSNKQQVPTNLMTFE
B5: 14-3-3 protein sigma (Homo sapiens), P31947 (parent)
chain: B1 chain
partner: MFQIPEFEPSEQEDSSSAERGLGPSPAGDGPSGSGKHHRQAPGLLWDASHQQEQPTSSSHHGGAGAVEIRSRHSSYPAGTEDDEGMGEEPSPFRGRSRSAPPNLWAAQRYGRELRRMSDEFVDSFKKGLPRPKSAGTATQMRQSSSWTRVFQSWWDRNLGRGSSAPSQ

Variants of: B1
Settings: with grk7_human GRK7, Q8WTQ7

Variant	effect of a mutation on the interaction
K49E;R56E;V178D	decreasing interaction strength

Variants of: B2
Settings: with ksr1_human KSR1, Q8IVT5

Variant	effect of a mutation on the interaction
K49E;R56E;V178D	decreasing interaction strength

Variants of: B3
Settings: with luzp1_human LUZP1, Q86V48

Variant	effect of a mutation on the interaction
K49E;R56E;V178D	decreasing interaction strength

Variants of: B4
Settings: with rgps2_human RALGPS2, Q86X27

Variant	effect of a mutation on the interaction
K49E;R56E;V178D	decreasing interaction strength

Variants of: B5
Settings: with bad_human BAD

Variant	effect of a mutation on the interaction
K49E;R56E;V178D	decreasing interaction strength
